# Results as given in US7834144B2 (priority 2005, dated 2010).
# “And” between values parts separate entries of the source, which are not always exact repeats. Equal values may be shown once. Read-outs that look alike come from different tables or passages of the source. Where no end group is shown, it is not given here. [ ]: non-standard residue; d: D form. Nab = not defined here; Nbn = not defined here
# Legend:
# [1] = molecular target: T1, PrP^Sc (Homo sapiens, UniProt P04156); format: binding
# [2] = molecular target: T2, PrPc (Homo sapiens, UniProt P04156); format: binding
# [3] = molecular target: T1, PrP^Sc
# [4] = molecular target: T2, PrPc; conditions: for LU, Pulldown, PrPC / pg, Pulldown, PrPC: 3M GdnSCN; for pg, Pulldown, PrPC: rPrP standard curve
# [5] = molecular target: T1, PrP^Sc; conditions: Table 15
# [6] = molecular target: T2, PrPc; conditions: Table 15
# [7] = molecular target: T1, PrP^Sc; conditions: Table 16
# [8] = molecular target: T2, PrPc; conditions: Table 16
# [9] = molecular target: T1, PrP^Sc; remark: listed apart in the source
# [10] = molecular target: T1, PrP^Sc; remark: listed apart in the source
# [11] = molecular target: T1, PrP^Sc; remark: listed apart in the source
# [12] = molecular target: T2, PrPc
# [13] = molecular target: T1, PrP^Sc; conditions: folded PrP^Sc pulled down by XIIb
# [14] = Table 7, covalently bound to magnetic beads, 70% human plasma
# [15] = 70 ul plasma (70%) + 50 nl 10% normal BH
# [16] = 15 μl GdnSCN 3M, pH 5.9, 210 μl H20, final pH 6.0
# [17] = H3PO4 (50 μl) 0.00007M, pH 4, NaOH (25 μl) 0.0031N
# [18] = H3PO4 (50 μl) 0.00075M, pH 3, NaOH (25 μl) 0.031N
# [19] = H3PO4 (50 μl) 0.12M, pH 2, NaOH (25 μl) 0.31N
# [20] = H3PO4 (50 μl) 0.5M, pH 1, NaOH (25 μl) 3.1N
# [21] = NaOH (50 μl) 0.0001M, pH 10, NaH2PO4 (20 μl) 0.0003M
# [22] = NaOH (50 μl) 0.001M, pH 11, NaH2PO4 (20 μl) 0.003M
# [23] = NaOH (50 μl) 0.1M, pH 12, NaH2PO4 (20 μl) 0.03M
# [24] = NaOH (50 μl) 0.1M, pH 13, NaH2PO4 (20 μl) 0.3M
# [25] = 50 μl GdnSCN 3M, pH 5.9, 50 μl NaHCO3, final pH 8.5
# [26] = vCJD 10 nL BH/asy, 3F4 capture, C2-AP detection
# [27] = vCJD 10 nL BH/asy, C17 capture, C2-AP detection
substance,measurement,setting,value
"Peptoid Reagent XIIb: peptoid reagent comprising SEQ ID NO: 240, Nab-Nab-Nab-Nbn-Nab-Nbn, covalently bound to magnetic beads ([Nab][Nab][Nab][Nbn][Nab][Nbn]; reading uncertain; also: covalently bound to magnetic beads, printed as Nab-Nab-Nab-Nbn-Nab-Nbn)",Mean,[1]; [14],174.3
same,Mean (% of 68),[1]; [14],126.4%
same,Mean binding,"[1]; Table 10, 0.833 nL human vCJD 10% brain homogenate, 70% human plasma, covalently attached to beads",49.2
same,Mean binding,"[1]; Table 10, 2.5 nL human vCJD 10% brain homogenate, 70% human plasma, covalently attached to beads",57.3
same,Mean binding,"[1]; Table 10, 7.5 nL human vCJD 10% brain homogenate, 70% human plasma, covalently attached to beads",121.1
same,Mean binding,"[1]; Table 11, TBSTT with 70% Human Plasma containing 20 nL 10% human CJD brain homogenate",1390.8
same,Mean (% of Control),"[1]; Table 13, Control Human Plasma",100.0%
same,Mean (% of Control),"[1]; Table 13, Human Plasma lot KC011886",132.78%
same,Mean (% of Control),"[1]; Table 13, Human Plasma lot KC011892",127.51%
same,Mean (% of Control),"[1]; Table 13, Human Plasma lot KC28719",126.03%
same,Mean (% of Control),"[1]; Table 13, Human Plasma lot KC032907",125.02%
same,Mean,"[1]; Table 13, bound directly to magnetic beads, Control Human Plasma",154.99
same,Mean,"[1]; Table 13, bound directly to magnetic beads, Human Plasma lot KC011886",205.80
same,Mean,"[1]; Table 13, bound directly to magnetic beads, Human Plasma lot KC011892",197.63
same,Mean,"[1]; Table 13, bound directly to magnetic beads, Human Plasma lot KC28719",195.33
same,Mean,"[1]; Table 13, bound directly to magnetic beads, Human Plasma lot KC032907",193.77
same,Mean binding,"[2]; Table 10, 15 nL 10% normal human brain homogenate, 70% human plasma, covalently attached to beads",13.2
same,Mean binding,"[2]; Table 11, TBSTT with 70% Human Plasma",269.5
same,Mean binding,"[2]; Table 11, TBSTT with 70% Human Plasma containing 20 nL 10% normal human brain homogenate",306.4
same,enrichment of PrP^Sc over PrP^C,[3]; 47 pg PrP^Sc pulled down vs 7 pg of about 488 pg PrP^C,≥ 70 fold
same,increase in signal,"[3]; 0.05 μl vCJD BH spiked into 70 μl plasma, versus background",four fold increase in signal
same,"LU, Pulldown, PrPSc","[3]; 70 ul plasma (70%) + 50 nl 10% vCJD BH, 3M GdnSCN",97.1 LU
same,"pg, Pulldown, PrPSc","[3]; 70 ul plasma (70%) + 50 nl 10% vCJD BH, 3M GdnSCN, rPrP standard curve",47 pg and 47.1 pg
same,"LU, Pulldown, PrPC",[4]; [15],25.6 LU
same,"pg, Pulldown, PrPC",[4]; [15],7.3 pg
same,"LU, Pulldown, PrPC",[4]; 70 ul plasma (70%),23 LU and 23.3 LU
same,"pg, Pulldown, PrPC",[4]; 70 ul plasma (70%),6.0 pg
same,PrP^C bound by peptoid,[4]; plasma containing about 488 pg of PrP^C,7 pg
same,S/N,"[5]; 15 μl GdnSCN 3M, pH 5.9",11
same,AVE vCJD + Plasma,[5]; [16],430.4
same,AVE vCJD + Plasma,"[5]; 70 μl TBST, pH 7.5",25.5
same,S/N,"[5]; 70 μl TBST, pH 7.5",2
same,S/N,"[5]; H3PO4 0.00007M, pH 4",1
same,S/N,"[5]; H3PO4 0.00075M, pH 3",1
same,S/N,"[5]; H3PO4 0.12M, pH 2",1
same,S/N,"[5]; H3PO4 0.5M, pH 1",9
same,AVE vCJD + Plasma,[5]; [17],27.0
same,AVE vCJD + Plasma,[5]; [18],26.6
same,AVE vCJD + Plasma,[5]; [19],122.5
same,AVE vCJD + Plasma,[5]; [20],264.0
same,S/N,"[5]; NaOH 0.0001M, pH 10",0
same,S/N,"[5]; NaOH 0.001M, pH 11",1
same,S/N,"[5]; NaOH 0.1M, pH 12",5
same,S/N,"[5]; NaOH 0.1M, pH 13",30
same,AVE vCJD + Plasma,[5]; [21],34.8
same,AVE vCJD + Plasma,[5]; [22],11.8
same,AVE vCJD + Plasma,[5]; [23],76.1
same,AVE vCJD + Plasma,[5]; [24],458.1
same,AVE Plasma,[6]; [16],37.7
same,AVE Plasma,"[6]; 70 μl TBST, pH 7.5",11.8
same,AVE Plasma,[6]; [17],26.8
same,AVE Plasma,[6]; [18],25.8
same,AVE Plasma,[6]; [19],92.7
same,AVE Plasma,[6]; [20],30.4
same,AVE Plasma,[6]; [21],197.6
same,AVE Plasma,[6]; [22],14.6
same,AVE Plasma,[6]; [23],16.1
same,AVE Plasma,[6]; [24],15.1
same,AVE vCJD + Plasma,[7]; [25],60.5
same,AVE vCJD + Plasma,"[7]; 100 μl TBST, pH 7.5",2.2
same,S/N,"[7]; 100 μl TBST, pH 7.5",1
same,S/N,"[7]; H3PO4 0.00007M, pH 4",1
same,S/N,"[7]; H3PO4 0.00075M, pH 3",1
same,S/N,"[7]; H3PO4 0.12M, pH 2",2
same,S/N,"[7]; H3PO4 0.5M, pH 1",5
same,AVE vCJD + Plasma,[7]; [17],7.6
same,AVE vCJD + Plasma,[7]; [18],21.8
same,AVE vCJD + Plasma,[7]; [19],14.6
same,AVE vCJD + Plasma,[7]; [20],57.1
same,S/N,"[7]; NaOH 0.0001M, pH 10",1
same,S/N,"[7]; NaOH 0.001M, pH 11",2
same,S/N,"[7]; NaOH 0.1M, pH 12",1
same,S/N,"[7]; NaOH 0.1M, pH 13",7
same,AVE vCJD + Plasma,[7]; [21],2.8
same,AVE vCJD + Plasma,[7]; [22],8.8
same,AVE vCJD + Plasma,[7]; [23],7.3
same,AVE vCJD + Plasma,[7]; [24],36.9
same,AVE Plasma,[8]; [25],5.5
same,AVE Plasma,"[8]; 100 μl TBST, pH 7.5",2.2
same,AVE Plasma,[8]; [17],8.7
same,AVE Plasma,[8]; [18],19.9
same,AVE Plasma,[8]; [19],8.0
same,AVE Plasma,[8]; [20],11.9
same,AVE Plasma,[8]; [21],3.1
same,AVE Plasma,[8]; [22],3.6
same,AVE Plasma,[8]; [23],5.1
same,AVE Plasma,[8]; [24],5.2
same,"Avg LU, 3F4 Plate",[9]; vCJD 0 nL BH/asy (background),4.55 LU
same,"Avg LU, C17 Plate",[9]; vCJD 0 nL BH/asy (background),45.56 LU
same,"S/N, 3F4 Plate",[9]; vCJD 0 nL BH/asy (background),1.0
same,"S/N, C17 Plate",[9]; vCJD 0 nL BH/asy (background),1.0
same,"Avg LU, 3F4 Plate",[9]; vCJD 1 nL BH/asy,8.90 LU
same,"Avg LU, C17 Plate",[9]; vCJD 1 nL BH/asy,50.75 LU
same,"S/N, 3F4 Plate",[9]; vCJD 1 nL BH/asy,2.0
same,"S/N, C17 Plate",[9]; vCJD 1 nL BH/asy,1.1
same,"Avg LU, 3F4 Plate",[9]; vCJD 5 nL BH/asy,19.34 LU
same,"Avg LU, C17 Plate",[9]; vCJD 5 nL BH/asy,74.71 LU
same,"S/N, 3F4 Plate",[9]; vCJD 5 nL BH/asy,4.3
same,"S/N, C17 Plate",[9]; vCJD 5 nL BH/asy,1.6
same,"S/N, 3F4 Plate",[9]; vCJD 10 nL BH/asy,13.2
same,"S/N, C17 Plate",[9]; vCJD 10 nL BH/asy,2.7
same,"Avg LU, 3F4 Plate",[9]; [26],60.07 LU
same,"Avg LU, C17 Plate",[9]; [27],124.18 LU
same,"Avg LU, 3F4 Beads",[10]; vCJD 0 nL BH/asy (background),1.62 LU
same,"Avg LU, C17 Beads",[10]; vCJD 0 nL BH/asy (background),11.84 LU
same,"S/N, 3F4 Beads",[10]; vCJD 0 nL BH/asy (background),1.0
same,"S/N, C17 Beads",[10]; vCJD 0 nL BH/asy (background),1.0
same,"Avg LU, 3F4 Beads",[10]; vCJD 1 nL BH/asy,3.11 LU
same,"Avg LU, C17 Beads",[10]; vCJD 1 nL BH/asy,16.53 LU
same,"S/N, 3F4 Beads",[10]; vCJD 1 nL BH/asy,1.9
same,"S/N, C17 Beads",[10]; vCJD 1 nL BH/asy,1.4
same,"Avg LU, 3F4 Beads",[10]; vCJD 5 nL BH/asy,2.25 LU
same,"Avg LU, C17 Beads",[10]; vCJD 5 nL BH/asy,26.08 LU
same,"S/N, 3F4 Beads",[10]; vCJD 5 nL BH/asy,1.4
same,"S/N, C17 Beads",[10]; vCJD 5 nL BH/asy,2.2
same,"S/N, 3F4 Beads",[10]; vCJD 10 nL BH/asy,1.7
same,"S/N, C17 Beads",[10]; vCJD 10 nL BH/asy,3.5
same,"Avg LU, 3F4 Beads",[10]; [26],2.83 LU
same,"Avg LU, C17 Beads",[10]; [27],41.86 LU
same,"vCJD BH (RLU) ave, Pulldown","[11]; 10 nL of 10% vCJD BH in 50% pooled normal human plasma, XIIb-beads, 0.1N NaOH",53.0 RLU
same,pulldown efficiency,[11]; pulldown signal vs directly GdnSCN-denatured 10 nL 10% vCJD sample,~100%
same,"Nomal BH (RLU) ave, Pulldown","[12]; 10 nL of 10% normal BH in 50% pooled normal human plasma, XIIb-beads",9.9 RLU
same,"No BH (RLU) ave, Pulldown","[12]; no BH, 50% pooled normal human plasma, XIIb-beads (background)",9.0 RLU
same,GdnHCl1/2 (GdnHCl concentration at half-maximal denaturation),[13]; sCJD brain homogenate,2.0 M
same,GdnHCl1/2 (GdnHCl concentration at half-maximal denaturation),[13]; vCJD brain homogenate,1.6 M
